This note sets out measurements from article PMC2206118.

Data set [1] deals with T1, FIR1+2 WT (FIR RRM1+2) (human, UniProt Q9UHX1-2 101-299, R106G;C112S;C238A). In words: X-ray crystallography.
The next data set concerns the target FIR1+2 F254L (human, UniProt Q9UHX1-2 101-299, R106G;C112S;C238A;F254L). As to the kind of experiment: fluorescence anisotropy.
Data set [2] deals with T1, FIR1+2 WT (FIR RRM1+2). As to the kind of experiment: fluorescence anisotropy.
Another data set has as its target FIR1+2 F157L (human, UniProt Q9UHX1-2 101-299, R106G;C112S;C238A;F157L). As to the kind of experiment: fluorescence anisotropy.
In a further data set the target is FIR1+2 Y115L (human, UniProt Q9UHX1-2 101-299, R106G;C112S;C238A;Y115L). In words: fluorescence anisotropy. (In general: In fluorescence polarisation assays a small probe gives low polarisation when free and higher when bound to something large.)
Sequence of FIR1+2 Y115L (Q9UHX1 118-316 R123G/C129S/Y132L/C255A): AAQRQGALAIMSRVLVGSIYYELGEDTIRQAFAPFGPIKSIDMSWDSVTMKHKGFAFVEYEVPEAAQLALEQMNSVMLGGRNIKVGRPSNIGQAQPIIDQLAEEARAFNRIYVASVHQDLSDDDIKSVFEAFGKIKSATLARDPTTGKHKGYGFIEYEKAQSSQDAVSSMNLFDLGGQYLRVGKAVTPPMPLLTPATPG

T1 sequence (Q9UHX1 118-316 R123G/C129S/C255A): as the sequence (Q9UHX1 118-316 R123G/C129S/Y132L/C255A) above, with L15Y counted along it
Sequence of FIR1+2 F254L (Q9UHX1 118-316 R123G/C129S/C255A/F271L): as the sequence (Q9UHX1 118-316 R123G/C129S/Y132L/C255A) above, with L15Y, F154L counted along it
Sequence of FIR1+2 F157L (Q9UHX1 118-316 R123G/C129S/F174L/C255A): as the sequence (Q9UHX1 118-316 R123G/C129S/Y132L/C255A) above, with L15Y, F57L counted along it

TCGGGATTTTTTATTTTGTGTTATT (ssDNA) [H25 (FUSE)]: the binding result with FIR1+2 WT (FIR RRM1+2) [1] is listed as “binds”.

Broadly, the Kd is a measure of binding affinity in units of concentration. As for CCTCGGGATTTTTTATTTTGTGTTATT (ssDNA) [H27 (FUSE), fluorescein], the Kd with FIR1+2 F254L was 0.17 ± 0.13 µM; with FIR1+2 WT (FIR RRM1+2) [2], 2.3 ± 1.8 µM; with FIR1+2 F157L, 140 ± 85 µM; in the data set with FIR1+2 Y115L, 81 ± 31 µM.
